Results as given in US20130280758A1 (Regeneron, published 2013).

Target: T1, rat Tie-2 (rTie-2), as used in BIAcore analysis (rat, UniProt A0ABK0L6J5 19-740)
T1 construct: It may have been rTie-2-Fc
Assay: BIAcore

B1: FD1-Fc-FD1 (Fc fusion, human)
chain (part 1 of 2): FRDCADVYQAGFNKSGIYTIYINNMPEPKKVFCNMDVNGGGWTVIQHREDGSLDFQRGWKEYKMGFGNPSGEYWLGNEFIFAITSQRQYMLRIELMDWEGNRAYSQYDRFHIGNEKQNYRLYLKGHTGTAGKQSSLILHGADFSTKDADNDNCMCKCALMLTGGWWFDACGPSNLNGMFYTAGQNHGKLNGIKWHYFKGPSYSLRSTTMMIRPLDF
chain (part 2 of 2): B1 chain (part 1 of 2)
notes: domain: fibrinogen domain of Ang1; also called BA1; not shown: Fc
Kd: 2 nM
